Test results published in paper PMC7960628.

Key:
Assay in all cases: SEC; gel filtration chromatography of the Ni-NTA purified motif-foldon fusion proteins; trimer
[1] = biological target: 6xHis-(GPP)5GSQGEK(GPP)5-foldon (mouse | not stated)
[2] = biological target: 6xHis-(GPP)5GFQGEK(GPP)5-foldon
[3] = biological target: 6xHis-(GPP)5GPKGER(GPP)5-foldon

**Q.** “6xHis-(GPP)5GSQGEK(GPP)5-foldon (designed binder)” was tested. Which stoichiometry N [1] did it give?
**A.** Its stoichiometry N is 3.

**Q.** For “6xHis-(GPP)5GFQGEK(GPP)5-foldon (designed binder)”, which stoichiometry N [2] is on record?
**A.** Its stoichiometry N is 3.

**Q.** Which stoichiometry N [3] does the source give for “6xHis-(GPP)5GPKGER(GPP)5-foldon (designed binder)” here?
**A.** The stoichiometry N was 3.
